The results in this text go back to patent US20210054055A1.

In test [1] the target is Zika virus (ZIKV) virions, envelope protein E (Zika virus).
The target in test [2] is Dengue virus serotype 4 (DENV4) virions, envelope protein E (Dengue virus 4).
Test [3] has the same target. The source holds these as a separate data set.
For test [4], the target named is Zika virus (ZIKV) virions, envelope protein E (Zika virus). This is another data set of the same source.

Where two headings read alike, the source gives them in different places.

With 1M7 (antibody), the IC50 (read off the curve) in test [1] worked out at 0.09 µg/mL.

What is called EC50 (read off the curve) is the concentration giving half of the maximal effect. In the test with DENV, 2D22 (antibody) gave an EC50 (read off the curve) of 0.08 µg/mL.

With EDE1 mAb C8 (antibody), in test [1], the IC50 (read off the curve) was found to be 0.2 µg/mL.

As to EDE1 mAb C10 (antibody), the EC50 (read off the curve) in test [2] stood at 0.2 µg/mL; with DENV it was 0.08 µg/mL. Moreover, the FRNT50 (focus reduction neutralization on Vero cells) was 28.5 ng/mL in the test with Dakar (Zika virus), 88.9 ng/mL in test [3], 16.2 ng/mL in the test with H/PF/2013 (Zika virus) and 0.2 ng/mL with MR766.

Substance ZKA78 (antibody) returned an IC50 (read off the curve) in test [1] of 0.2 µg/mL.

Turning to “ZKA190, human ZIKV-specific mAb (antibody)”, the IC50 (read off the curve) in test [4] is 0.07 µg/mL.
